Target: the molecule itself
Assay: SEC

B1: recombinant WT influenza A NP (NΔ7NP, C-terminal His tag) (natural protein)
chain: RSYEQMETDGERQNATEIRASVGKMIGGIGRFYIQMCTELKLSDYEGRLIQNSLTIERMVLSAFDERRNKYLEEHPSAGKDPKKTGGPIYRRVDGKWMRELILYDKEEIRRIWRQANNGDDATAGLTHMMIWHSNLNDATYQRTRALVRTGMDPRMCSLMQGSTLPRRSGAAGAAVKGVGTMVMELIRMIKRGINDRNFWRGENGRRTRIAYERMCNILKGKFQTAAQRAMVDQVRESRNPGNAEFEDLIFLARSALILRGSVAHKSCLPACVYGPAVASGYDFEREGYSLVGIDPFRLLQNSQVYSLIRPNENPAHKSQLVWMACHSAAFEDLRVSSFIRGTKVVPRGKLSTRGVQIASNENMETMESSTLELRSRYWAIRTRSGGNTNQQRASSGQISIQPTFSVQRNLPFDRPTIMAAFTGNTEGRTSDMRTEIIRLMESARPEDVSFQGRGVFELSDEKAASPIVPSFDMSNEGSYFFGDNAEEYDN
B1: binds.
